B1: NETO1 (parent)
chain: KTSLLDQLTNTSGTVIGVTSCIVI
B2: STK38L (parent)
chain: FLPGGDMMTLLMKKDTLTEEETQF

Variants of: B1
Assay: protein stability index of a GFP-peptide fusion (GPS, HEK-293T) (PSI 1-6); higher = more stable
Details: c terminus: a fixed tail appended
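Note: lentivirally expressed fusions sorted by FACS into six bins by GFP to DsRed ratio, PSI derived from sequencing read proportions per bin multiplied by bin number.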

Compared with KTSLLDQLTNTSGTVIGVTSCIKI [V23K], KTSLLDQLTNTSGTVIGVTSCIDI [V23D] is lower in protein stability index: 3.04 for the first, 1.95 for the second.

First: KTSLLDQLTNTSGTVIGVTSCIWI [V23W]
Second: KTSLLDQLTNTSGTVIGVTSCIAI [V23A]
The protein stability index of the first is higher: 2.74 for the first, 2.03 for the second.

First: KTSLLDQLTNTSGTVIGVTSCIFI [V23F]
Second: KTSLLDQLTNTSGTVIGVTSCIYI [V23Y]
The protein stability index of the first is lower: 2.28 for the first, 2.66 for the second.

First: KTSLLDQLTNTSGTVIGVTSCIII [V23I]
Second: KTSLLDQLTNTSGTVIGVTSCITI [V23T]
The protein stability index of the first is lower: 2.81 for the first, 2.85 for the second.

Going from KTSLLDQLTNTSGTVIGVTSCIRI [V23R] to KTSLLDQLTNTSGTVIGVTSCINI [V23N], the protein stability index falls from 2.65 to 2.01.

Going from KTSLLDQLTNTSGTVIGVTSCIMI [V23M] to KTSLLDQLTNTSGTVIGVTSCICI [V23C], the protein stability index rises from 2.56 to 3.17.

Compared with KTSLLDQLTNTSGTVIGVTSCIHI [V23H], KTSLLDQLTNTSGTVIGVTSCIPI [V23P] is lower in protein stability index: 1.97 for the first, 1.65 for the second.

Compared with KTSLLDQLTNTSGTVIGVTSCIGI [V23G], KTSLLDQLTNTSGTVIGVTSCILI [V23L] is higher in protein stability index: 1.79 for the first, 3.18 for the second.

Going from KTSLLDQLTNTSGTVIGVTSCIEI [V23E] to KTSLLDQLTNTSGTVIGVTSCIQI [V23Q], the protein stability index falls from 2.98 to 2.87.

Going from KTSLLDQLTNTSGTVIGVTSCWVI [I22W] to KTSLLDQLTNTSGTVIGVTSCYVI [I22Y], the protein stability index falls from 3.04 to 2.81.

Compared with KTSLLDQLTNTSGTVIGVTSCIVF [I24F], KTSLLDQLTNTSGTVIGVTSCIVQ [I24Q] is lower in protein stability index: 1.79 for the first, 1.62 for the second.

Compared with KTSLLDQLTNTSGTVIGVTSCIVS [I24S], KTSLLDQLTNTSGTVIGVTSCIVY [I24Y] is higher in protein stability index: 1.94 for the first, 2.55 for the second.

First: KTSLLDQLTNTSGTVIGVTSCIVN [I24N]
Second: KTSLLDQLTNTSGTVIGVTSCIVM [I24M]
The protein stability index of the first is lower: 2.08 for the first, 2.45 for the second.

Compared with KTSLLDQLTNTSGTVIGVTSCIVH [I24H], KTSLLDQLTNTSGTVIGVTSCIVR [I24R] is lower in protein stability index: 1.99 for the first, 1.74 for the second.

First: KTSLLDQLTNTSGTVIGVTSCIVA [I24A]
Second: KTSLLDQLTNTSGTVIGVTSCIVG [I24G]
The protein stability index of the first is lower: 1.71 for the first, 1.79 for the second.

Going from KTSLLDQLTNTSGTVIGVTSCIVL [I24L] to KTSLLDQLTNTSGTVIGVTSCIVV [I24V], the protein stability index falls from 3.2 to 2.2.

Compared with KTSLLDQLTNTSGTVIGVTSCIVC [I24C], KTSLLDQLTNTSGTVIGVTSCIVK [I24K] is higher in protein stability index: 1.64 for the first, 2.04 for the second.

Compared with KTSLLDQLTNTSGTVIGVTSCIVT [I24T], KTSLLDQLTNTSGTVIGVTSCIVD [I24D] is higher in protein stability index: 1.6 for the first, 2.54 for the second.

Going from KTSLLDQLTNTSGTVIGVTSCIVP [I24P] to KTSLLDQLTNTSGTVIGVTSCIVW [I24W], the protein stability index rises from 2.33 to 2.92.

With KTSLLDQLTNTSGTVIGVTSCIVE [I24E] the protein stability index was 2.21.

Variants of: B2
Assay: as above
Details: c terminus: a fixed tail appended

Compared with FRPGGDMMTLLMKKDTLTEEETQF [L2R], FEPGGDMMTLLMKKDTLTEEETQF [L2E] is higher in protein stability index: 4.15 for the first, 4.84 for the second.

Compared with FQPGGDMMTLLMKKDTLTEEETQF [L2Q], FPPGGDMMTLLMKKDTLTEEETQF [L2P] is higher in protein stability index: 2.15 for the first, 2.65 for the second.

Compared with FFPGGDMMTLLMKKDTLTEEETQF [L2F], FIPGGDMMTLLMKKDTLTEEETQF [L2I] is lower in protein stability index: 3.08 for the first, 2.07 for the second.

First: FVPGGDMMTLLMKKDTLTEEETQF [L2V]
Second: FDPGGDMMTLLMKKDTLTEEETQF [L2D]
The protein stability index of the first is lower: 1.78 for the first, 4.38 for the second.

Compared with FCPGGDMMTLLMKKDTLTEEETQF [L2C], FNPGGDMMTLLMKKDTLTEEETQF [L2N] is higher in protein stability index: 1.42 for the first, 3.32 for the second.

Going from FSPGGDMMTLLMKKDTLTEEETQF [L2S] to FTPGGDMMTLLMKKDTLTEEETQF [L2T], the protein stability index falls from 2.6 to 2.54.

Going from FHPGGDMMTLLMKKDTLTEEETQF [L2H] to FWPGGDMMTLLMKKDTLTEEETQF [L2W], the protein stability index rises from 1.91 to 3.

Going from FKPGGDMMTLLMKKDTLTEEETQF [L2K] to FYPGGDMMTLLMKKDTLTEEETQF [L2Y], the protein stability index falls from 4.24 to 3.68.

Going from FMPGGDMMTLLMKKDTLTEEETQF [L2M] to FGPGGDMMTLLMKKDTLTEEETQF [L2G], the protein stability index falls from 2.33 to 2.23.

Compared with FLPGGYMMTLLMKKDTLTEEETQF [D6Y], FLPGGNMMTLLMKKDTLTEEETQF [D6N] is higher in protein stability index: 2.42 for the first, 2.69 for the second.

First: FLPGGRMMTLLMKKDTLTEEETQF [D6R]
Second: FLPGGCMMTLLMKKDTLTEEETQF [D6C]
The protein stability index of the first is lower: 2.18 for the first, 2.24 for the second.

Going from FLPGGQMMTLLMKKDTLTEEETQF [D6Q] to FLPGGMMMTLLMKKDTLTEEETQF [D6M], the protein stability index rises from 1.96 to 2.54.

Compared with FLPGGVMMTLLMKKDTLTEEETQF [D6V], FLPGGTMMTLLMKKDTLTEEETQF [D6T] is lower in protein stability index: 2.33 for the first, 1.82 for the second.

First: FLPGGLMMTLLMKKDTLTEEETQF [D6L]
Second: FLPGGEMMTLLMKKDTLTEEETQF [D6E]
The protein stability index of the first is higher: 2.71 for the first, 2.02 for the second.

Going from FLPGGFMMTLLMKKDTLTEEETQF [D6F] to FLPGGWMMTLLMKKDTLTEEETQF [D6W], the protein stability index falls from 1.96 to 1.4.

Compared with FLPGGKMMTLLMKKDTLTEEETQF [D6K], FLPGGHMMTLLMKKDTLTEEETQF [D6H] is lower in protein stability index: 1.98 for the first, 1.72 for the second.

Compared with FLPGGSMMTLLMKKDTLTEEETQF [D6S], FLPGGAMMTLLMKKDTLTEEETQF [D6A] is lower in protein stability index: 2.07 for the first, 1.7 for the second.

First: FLPGGIMMTLLMKKDTLTEEETQF [D6I]
Second: FLPGGPMMTLLMKKDTLTEEETQF [D6P]
The protein stability index of the first is lower: 1.85 for the first, 1.87 for the second.

Compared with FLPGGDMMALLMKKDTLTEEETQF [T9A], QLPGGDMMTLLMKKDTLTEEETQF [F1Q] is higher in protein stability index: 2.52 for the first, 4.79 for the second.

Going from NLPGGDMMTLLMKKDTLTEEETQF [F1N] to KLPGGDMMTLLMKKDTLTEEETQF [F1K], the protein stability index falls from 4.66 to 4.54.

Going from ILPGGDMMTLLMKKDTLTEEETQF [F1I] to RLPGGDMMTLLMKKDTLTEEETQF [F1R], the protein stability index rises from 3.88 to 4.39.

First: ELPGGDMMTLLMKKDTLTEEETQF [F1E]
Second: WLPGGDMMTLLMKKDTLTEEETQF [F1W]
The protein stability index of the first is higher: 4.92 for the first, 3.49 for the second.

First: ALPGGDMMTLLMKKDTLTEEETQF [F1A]
Second: SLPGGDMMTLLMKKDTLTEEETQF [F1S]
The protein stability index of the first is higher: 4.91 for the first, 4.29 for the second.

First: YLPGGDMMTLLMKKDTLTEEETQF [F1Y]
Second: LLPGGDMMTLLMKKDTLTEEETQF [F1L]
The protein stability index of the first is lower: 2.33 for the first, 3.71 for the second.

Going from GLPGGDMMTLLMKKDTLTEEETQF [F1G] to VLPGGDMMTLLMKKDTLTEEETQF [F1V], the protein stability index rises from 4.51 to 4.67.

Compared with MLPGGDMMTLLMKKDTLTEEETQF [F1M], HLPGGDMMTLLMKKDTLTEEETQF [F1H] is higher in protein stability index: 4.39 for the first, 4.48 for the second.

Going from PLPGGDMMTLLMKKDTLTEEETQF [F1P] to TLPGGDMMTLLMKKDTLTEEETQF [F1T], the protein stability index falls from 4.76 to 4.68.

DLPGGDMMTLLMKKDTLTEEETQF [F1D] showed a protein stability index of 5.25.

— the supplement of paper PMC10567573
